According to patent publication US20120064065A1 (AC IMMUNE S A, published 2012):

Key:
murine Aβ1-42 peptide = molecular target: T1, murine Aβ1-42 peptide (murine, UniProt P12023 672-713); assay: Aβ ELISA
T1 construct: domain: Aβ1-42
T1 peptide (looked up): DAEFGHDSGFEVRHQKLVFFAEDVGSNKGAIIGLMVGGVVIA

[1] = molecular target: T2, human FcγRIIIa-V158, extracellular domain with C-terminal Gly/6xHis/GST tag (human, UniProt P08637 17-208); assay: ELISA, cross-linked antibody on anti-GST-captured FcγRIIIa-V158
T2 construct: extracellular domain; Made by Genentech; captured on the plate through an anti-GST antibody; V158 is the allotype as printed; not shown: Gly/6xHis/glutathione S transferase (GST) polypeptide tag at the C terminus
T2 sequence (P08637 17-208 F176V): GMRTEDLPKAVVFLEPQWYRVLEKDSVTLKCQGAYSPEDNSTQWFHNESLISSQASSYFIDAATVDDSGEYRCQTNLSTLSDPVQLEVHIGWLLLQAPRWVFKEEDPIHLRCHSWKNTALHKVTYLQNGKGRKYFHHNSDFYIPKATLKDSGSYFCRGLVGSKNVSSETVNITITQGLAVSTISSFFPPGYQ

B1: MABT humanized anti-Aβ IgG4 monoclonal antibody (antibody)
heavy: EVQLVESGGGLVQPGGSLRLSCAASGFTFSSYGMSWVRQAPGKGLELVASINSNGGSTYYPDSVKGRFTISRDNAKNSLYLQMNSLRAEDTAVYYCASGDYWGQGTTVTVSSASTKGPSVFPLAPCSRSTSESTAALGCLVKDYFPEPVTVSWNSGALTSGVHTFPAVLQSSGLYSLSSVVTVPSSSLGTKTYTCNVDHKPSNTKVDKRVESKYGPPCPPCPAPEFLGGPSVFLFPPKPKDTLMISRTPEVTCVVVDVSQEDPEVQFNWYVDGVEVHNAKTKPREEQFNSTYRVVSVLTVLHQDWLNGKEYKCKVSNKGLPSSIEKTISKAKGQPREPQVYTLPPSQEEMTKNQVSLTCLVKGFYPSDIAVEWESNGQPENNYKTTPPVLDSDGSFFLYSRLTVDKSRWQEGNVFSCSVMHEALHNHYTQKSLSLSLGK
light: DIVMTQSPLSLPVTPGEPASISCRSSQSLVYSNGDTYLHWYLQKPGQSPQLLIYKVSNRFSGVPDRFSGSGSGTDFTLKISRVEAEDVGVYYCSQSTHVPWTFGQGTKVEIKRTVAAPSVFIFPPSDEQLKSGTASVVCLLNNFYPREAKVQWKVDNALQSGNSQESVTEQDSKDSTYSLSSTLTLSKADYEKHKVYACEVTHQGLSSPVTKSFNRGEC
notes: also called anti-Aβ MABT; MABT IgG4
- binding result (murine Aβ1-42 peptide): binds
- binding result [1]: binds
